“And” between values parts separate entries of the source, which are not always exact repeats. Equal entries are not always repeated. Marks after values point to notes of the source that are not given here.
Experiments:
[1] = Ca^2+ binding constant, dye competition / Tb^3+ FRET competition
Source text: Since metal selectivity for Gd^3+ over other physiological metal ions is for minimizing the toxicity of the agents,^39, 40 we measured metal binding constants using dye-competition assays with various chelate-metal buffer systems (Table 1). Low limit metal binding affinities of the proteins were also estimated based on Tb^3+-sensitized FRET and competition assays. […] This is considered for in vivo applications of the contrast agent as the phosphate concentration in serum is maintained at ~1.3 mM.^6, 9 The stability of a contrast agent in blood circulation is another factor for in vivo applications. We characterized the stability by incubating Gd-CA1.CD2 with 75% human serum at 37° C. for 3 and 6 hours.
Metal binding affinity for Ca^2+ and Zn^2+ were determined using similar competition methods and specific dyes with proper Kd values.

[2] = Water coordination number by terbium life time luminescence; type: physicochemical
Protocol: Measurement of Water Coordination Number by Terbium Life Time Luminescence. The number of water ligands coordinated to Gd^3+-CA1.CD2 complex was determined by measuring Tb^3+ luminescence decay in H2O or D2O. Tb^3+ excited state lifetime was measured using a fluorescence spectrophotometer (Photon Technology International, Inc.) with a 10 mm path length quartz cell at 22° ° C. Following excitation at 265 nm with a XenoFlash (Photon Technology International, Inc.), Tb^3+ emission was monitored at 545 nm in a time series experiment in both H2O and D2O systems. Luminescence decay lifetime was obtained by fitting the acquired data with a mono-exponential decay function. H2O in CA1.CD2 solution was replaced with D2O by lypholization and re-dissolved in D2O at least three times. A standard curve correlating the Δkobs with water number under our experimental conditions was established by using well-characterized chelators, such as EDTA (q=3), DTPA (q=1), NTA (q=5), and Aquo Tb^3+ (q=9) solution with R^2=0.997.^26,27 Water number coordinated to Tb^3+-CA1.CD2 complex was then obtained by fitting the acquired Δkobs value to the standard curve.
The numbers of water ligands coordinated to Gd^3+-CA1.CD2 and variants complex were determined by measuring Tb^3+ luminescence decay in H2O or D2O (Yang et al., 2008). Tb^3+ excited state lifetime was measured using a fluorescence spectrophotometer (Photon Technology International, Inc.) with a 10 mm path length quartz cell at 22° C. Following excitation at 265 nm with a XenoFlash (Photon Technology International, Inc.), Tb^3+ emission was monitored at 545 nm in a time series experiment in both H2O and D2O systems. Luminescence decay lifetime was obtained by fitting the acquired data with a mono-exponential decay function. H2O in CA1.CD2 solution was replaced with D2O by lypholization and re-dissolved in D2O at least three times. A standard curve correlating the Δkobs with water number under our experimental conditions was established by using well-characterized chelators, such as EDTA (q=3). DTPA (q=1), NTA (q=5), and Aquo Tb^3+ (q=9) solation with R^2=0.997.^26, 27 Water number coordinated to Tb^+-CA1.CD2 complex was then obtained by fitting the acquired Δkobs value to the standard curve.

[3] = tested on: rabbits; test: Immunogenicity in rabbits, ELISA and immunoblotting; type: in vivo, rabbit
Protocol: FIG. 2.7: Illustrates ELISA (left) or western blot (right) analyses of antibody produced in rabbit serum after i.p. injection of […] of protein CA1.CD2 or PEGylated CA1.CD2 (PEGCA1.CD2). In (left), Pre is the serum from pre-bleeding before antigen injection. CA1.CD2 was mixed with adjuvant (CA1.CD2+Ad) or with buffer saline (CA1.CD2+Sal) before injection. PabCD2 is the anti-serum from rabbits produced by a commercial source use CD2 as antigen. The open bars are the first bleed after first injection. The gray bars are the second bleed after second injection. The rabbit blood was taken 3 weeks after each injection. The error bars are standard deviations of four measurements. In (right), Western blots were performed with anti-serum (1st bleed) from rabbits that were injected; CA1.CD2 mixed with buffered saline (left panel, CA1.CD2+Sal), CA1.CD2 mixed with adjuvant (middle panel, CA1.CD2+Ad), and the PEGylated CA1.CD2 (right panel, PEG-CA1.CD2). The Western blots experiments were carried out with 0.5 mg of PEGylated CA1.CD2 (PEG-CA1.CD2) or unmodified CA1.CD2 (CA1.CD2). Arrow indicates the position of the detected protein bands 19 hours post injection.
Rabbits were i.p. injected with Gd-CA1.CD2 and its pegylated variants. The agents (CA1.CD2) were mixed with adjuvant or with buffer saline and injected at a dose of 3.0 nmole/kg according to the standard protocol for the antibody production. […]

[4] = tested on: AU565; test: MR imaging of cancer cell pellets; type: cell-based
Protocol: (§1) To test whether our designed proteins are applicable for targeted imaging, we carried out MR imaging of cancer cells that were incubated with the designed protein contrast agents Gd-CA1-Affi using four different cancer cell lines with different expression levels of HER2. […] The MR image contrast enhancements from the contrast agent can be correlated to the HER2 levels.

[5] = tested on: SKOV3; test: MR imaging of cancer cell pellets; type: cell-based
Protocol: as §1

[6] = tested on: CD-1 mice; test: Toxicity analyses and clinical pathology in mice
Protocol: Toxicity Analyses. […] Tissue samples from kidney, liver, spleen, and lung were collected.
One group of mice received (i.v. tail veil) 50 μl of saline-buffer (as control). […] Blood samples were collected from the experimental mice. Serum samples were prepared from the collected blood. Liver enzymes in serum samples, including Alanine transaminase (ALT), Alkaline phosphatase (ALP), Aspartate transaminase (AST), Gamma glutamyl transpeptidase (GGT), and bilirubin and urea nitrogen were analyzed by a commercially available source (MU Research Animal Diagnostic Laboratory). All clinical chemistry parameters were measured on an Olympus AU 400 analyzer.
Tissue samples from kidney, liver, spleen, and lung were collected.

| Molecule | Metal binding constant (Log Ka) Ca^2+ [1] | disassociation constant (Kd) for Ca^2+ [1] [mM] | Log (KGd/KCa) ([1]; metal selectivity) | hydration number (water number in the coordination shell) [2] | Tb^3+ life time ([2]; in D2O) | Tb^3+ life time ([2]; protein complex in H2O) [μs] | antibody production ([3]; with adjuvant) | antibody production ([3]; without adjuvant, double dose immunization, 3.0 nmole/kg i.p.) | MR image of AU565 cell pellets [4] | MR image of SKOV3 cell pellets [5] | ALP ([6]; 4.0 μmole/kg, n = 4) [U/L] | ALT ([6]; 4.0 μmole/kg, n = 4) [U/L] | AST ([6]; 4.0 μmole/kg, n = 4) [U/L] | Direct Bili ([6]; 4.0 μmole/kg, n = 4) [mg/L] | GGT ([6]; 4.0 μmole/kg, n = 4) [U/L] | Total Bili ([6]; 4.0 μmole/kg, n = 4) [mg/L] | Total Urine Protein ([6]; 4.0 μmole/kg, n = 4) [g/L] | Urea Nitrogen ([6]; 4.0 μmole/kg, n = 4) | effects on liver enzymes (ALT, ALP, AST), serum urea nitrogen, bilirubin, total protein vs control mice ([6]; 48 hours post-contrast injection) | acute toxicity ([6]; ~2.4 μmole/kg, observed five days) |
| --- | --- | --- | --- | --- | --- | --- | --- | --- | --- | --- | --- | --- | --- | --- | --- | --- | --- | --- | --- | --- |
| CA1.CD2: designed Gd^3+-binding protein, domain 1 of rat CD2 with ligand residues Glu15, Glu56, Asp58, Asp62, Asp64 (protein) RDSGTVWGALGHGIELNIPNFQMTDDIDEVRWERGSTLVAEFKRKMKPFLKSGAFEIDANGDLDIKNLTRDDSGTYNVTVYSTNGTRILNKALDLRILE | <2.22 | ≥ 6 | >9.84 | 2.1 and 2 | 1,679 μs | 859 | resulted in immuno-responses | did not lead to antibody production |  |  |  |  |  |  |  |  |  |  |  |  |
| Gd-CA1.CD2: CA1.CD2 in complex with Gd^3+ (protein) RDSGTVWGALGHGIELNIPNFQMTDDIDEVRWERGSTLVAEFKRKMKPFLKSGAFEIDANGDLDIKNLTRDDSGTYNVTVYSTNGTRILNKALDLRILE |  |  |  |  |  |  |  |  | no significant changes in MR image | no significant changes in MR image | 115.0 ± 0.2 | 49.0 ± 0.2 | 280.0 ± 0.2 | 0.0 | 0.0 | 0.4 ± 0.2 | 5.2 ± 0.2 | 26.0 ± 0.2^d mg/L | negligible | did not exhibit acute toxicity |

From patent US12708677B2, “Contrast agents, methods for preparing contrast agents, and methods of imaging” (Georgia State University Research Foundation, Inc., priority 2008, dated 2026)
